# Molecular target: T1, LDLR (Homo sapiens, UniProt P01130)
# T1 construct: expressed in transfected cells; host or cells: HEK293 (ATCC CRL-1573)
# Format: binding
# T1 sequence (P01130 22-860): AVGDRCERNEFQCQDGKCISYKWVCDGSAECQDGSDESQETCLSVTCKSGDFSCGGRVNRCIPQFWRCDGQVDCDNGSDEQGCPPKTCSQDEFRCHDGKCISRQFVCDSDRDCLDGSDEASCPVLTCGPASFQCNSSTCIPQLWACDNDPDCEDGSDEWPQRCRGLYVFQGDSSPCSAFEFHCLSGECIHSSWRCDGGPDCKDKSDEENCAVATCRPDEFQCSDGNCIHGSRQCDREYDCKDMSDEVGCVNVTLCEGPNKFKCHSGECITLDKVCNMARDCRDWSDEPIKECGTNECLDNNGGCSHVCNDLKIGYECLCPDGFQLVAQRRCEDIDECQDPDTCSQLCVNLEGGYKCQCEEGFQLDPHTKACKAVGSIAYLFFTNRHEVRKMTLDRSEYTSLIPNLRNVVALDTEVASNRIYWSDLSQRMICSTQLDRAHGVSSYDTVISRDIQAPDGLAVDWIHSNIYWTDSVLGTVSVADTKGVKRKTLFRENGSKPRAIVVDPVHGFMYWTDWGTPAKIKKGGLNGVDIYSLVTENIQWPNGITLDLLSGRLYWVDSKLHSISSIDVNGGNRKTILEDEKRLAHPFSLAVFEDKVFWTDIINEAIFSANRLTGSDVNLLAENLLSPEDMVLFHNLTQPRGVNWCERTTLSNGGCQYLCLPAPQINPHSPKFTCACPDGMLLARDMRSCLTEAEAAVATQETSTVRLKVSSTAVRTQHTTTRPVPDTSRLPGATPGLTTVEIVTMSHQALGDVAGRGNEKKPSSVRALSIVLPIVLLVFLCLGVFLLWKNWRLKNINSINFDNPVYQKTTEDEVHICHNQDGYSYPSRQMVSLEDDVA
substance,measurement,value
BODIPY-FL-labelled LDL: BOPIDY FL complexed LDL purchased from ThermoFisher Scientific; fluorescent ligand for the BRET binding assay,ligand-binding BRET signal (binding to LDLR),concentration-dependent ligand-binding BRET signal
